Data reported in the DeepSol protein solubility set.

Assay: soluble on expression in E. coli; label from the status in PepcDB or PDB records

| Sequence | soluble on expression in E. coli |
| --- | --- |
| MKHFSVKRLLGLSSVLLVTLGASMHAQSYLPKHESVTLKNGLQVVSVPLENKTGVIEVDVLYKVGSRNETMGKSGIAHMLEHLNFKSTKNLKAGEFDKIVKRFGGVSNASTSFDITRYFIKTSQANLDKSLELFAETMGSLNLKEDEFLPERQVVAEERRWRTDNSPIGMLYFRFFNTAYVYHPYHWTPIGFMDDIQNWTLKDIKKFHSLYYQPKNAIVLVVGDVNSQKVFELSKKHFESLKNLDEKAIPTPYMKEPKQDGARTAVVHKDGVHLEWVALGYKVPAFKHKDQVALDALSRLLGEGKSSWLQSELVDKKRLASQAFSHNMQLQDESVFLFIAGGNPNVKAEALQKEIVALLEKLKKGEITQAELDKLKINQKADFISNLESSSDVAGLFADYLVQNDIQGLTDYQRQFLDLKVSDLVRVANEYFKDTQSTTVFLKP | not soluble |
| MKHLFTRIFLFHLLLIGTVQVTAQNKKSGNPILPGFHADPEVLYSHQTKRYYIYPTSDGFPGWGGSYFKVFSSKNLKTWKEETVILEMGKNVSWANGNAWAPCIEEKKIDGKYKYFFYYSANPTTNKGKQIGVAVADSPTGPFTDLGKPIITSSPTGRGQQIDVDVFTDPVSGKSYLYWGNGYMAGAELNDDMLSIKEETTVVLTPKGGTLQTYAYREAPYVIYRKGIYYFFWSVDDTGSPNYHVVYGTAQSPLGPIEVAKEPIVLIQNPKEEIYGPAHNSILQVPGKDKWYIVYHRINKNHLNDGPGWHREVCIDRMEFNPDGTIKQVIPTP | not soluble |
| MKHLIVVPPRMNLYIKKNLAINDIFREFVANEDLWPYSIDESILDLTHTWRLFGKTPRAVAQLIQHTIRHRLGLYTTVGIGDNPLQAKIALDVYAKHDPNLIGQISYLEHHHHHH | not soluble |
| MKHLTASEVRSTFINFFREKKEHTYVHSSSVIPHDDPTLLFANAGMNQFKPLFLGIADPNSDLAKLKRAVNTQKCIRAGGKHNDLDDVGKDVYHHTYFEMLGNWSFGDYFKKEIITWAWELLTTVYGIPAERLYVSVFGGDEANGVPADSEARDIWRSVGVPDERILNFGMKDNFWEMGDVGPCGPCSEIHYDRIGNRDASHLVNADDPMVVEIWNLVFIQFNREEGGVLKPLPAKHIDCGLGLERLIAVMQDKTSNYDTDIFQPIFEAIHKGSGVRAYTGFIGDEDKDGVDMAYRVVADHVRTLTIALSDGGRPDNSGRGYVLRRILRRGVRYASEKLNAQPGFFASLVPVVISILGETFPELSRDPVTVMDIINDEEKQFLKTLSRGRVLFQRAVQSLPEGTMTFPGDVSWRLYDTYGFPADLTQLMAEEKGLSVDNTAFEEARRKAIETSSAGTGKFRDTLDLDVHALAELQQKGVPTTDDSPKYAYTFTGEGSDAVYKFEPCVGKILAIRRDGKFVDQLAAGEEGAILLDRTNFYAEQGGQIYDVGVLTKVNDESNEFNVSNCQVRGGYIVLVGSAEGSFSVGDQVNERFDEDRKQLIMKNHTGTHVLNYALRKVLADSDQKGSLVAPDRMRFDFTNKAGMTVQQVKKAEEYAQQLIDTKGQVYAKNSPLGEAKKVKGLRAMFDETYPDPVRVVAVGTPVEQLLQNPDAEEGQNTTVEFCGGTHLQNVSHIGRIVIASEEAIAKGIRRIVALTGPEAERAIARADRLTARLEEESKHADKKDELLANKDKFKALQKKIQEIVDEANGAQLPYWRKDSIREKAKAIQKTLDGYTKAQQAAVAEKVLGEAKELAAVAEQPTVLVHVFAANANSKAIDNALKLLKDTKAVMAFSVNEDSGKVLCLAKVDKSLVSNGLKANEWVNEVCTVLGGKGGGKDANAQLTGENVDKLDAAVELAQKFALAAIN | soluble |
| MKHVPIRMCVACRRRRPKGELLRILVTEEGFVIDPSGKRPGRGAYVCPDSPECRSEKRLRRFAGAKARALAEALAAYLGGEDGQGKDLPAG | soluble |
| MKIAIIGAGIGGLTAAALLQEQGHTIKVFEKNESVKEIGAGIGIGDNVLKKLGNHDLAKGIKNAGQILSTMTVLDDKDRLLTTVKLKSNTLNVTLPRQTLIDIIKSYVKDDVIFTNHEVTHIDNETDKVTIHFAEQESEAFDLCIGADGIHSKVRQSVNADSKVLYQGYTCFRGLIDDIDLKHPDCAKEYWGRKGRVGIVPLLNNQAYWFITINSKENNHKYSSFGKPHLQAYFNHYPNEVREILDKQSETGILLHNIYDLKPLKSFVYGRTILLGDAAHATTPNMGQGAGQAMEDAIVLVNCFNAYDFEKALQRYDKIRVKHTAKVIKRSRKIGKIAQYRSRLFVAVRNRIMKMMPNALAAGQTKFLYKSKEKLEHHHHHH | soluble |
| MKIAIIGYSGSGKSTLANFLGQHYNCEVLHLDKIHFTSNWQERTVDEMTDDISTFMLQSDWIIEGNYSACLYEERMREADCIVYFNFNRVNCLYRAFRRYLTYRGKTRPSMAEG | not soluble |
| MKIALINENSQAAKNGIIYDALTTVTDKHGYQVFNYGMYGTEGESQLTYVQNGLLASILLTTKAADFVVTGCGTGVGAMLALNSFPGVTCGFASEPTEAYLFSQINGGNALSIPFAKGFGWGAELNLTLIFERLFAEPMGGGYPKERAIPEQRNARILSDLKKITYRDLLAIVKDIDQDFLKETISGAHFQEYFFANAEPSELVTYLKSVLEQ | not soluble |
| MKIAVLGASGWIGGTILNEALSRGHEVVALVRDPSKLGETAAEVRSVDLAKPLTADTFAGVDVLIASVGGRADLNHSLVAKTVNNLLALLPLAKVPRLLWVGGAGSLEVAPGVTLVSSPDFPPAYKDEALAQGEALKAFRAANTAVNWTFVSPAAEIYPGESEGLYRLGGDSFFTDAKGRSRISVTDYAKAMLDEAEKGAHPNQRISVAYLEHHHHHH | soluble |
| MKIGFIGTGSMGTILIESFLESSALTAEQIVITNRTQEKADALARRYPGLSVVDRPEEVVQQTDCFFVCVKPMQFHRVLMDIRPHCSANKLLVSITSPISIAQLENSVDCKVARAIPSILNRACAGSTLVSFSERCLEEDRSFLCGLLGTISEPLLIEEKITRVSSDIVSCGPAFFSYLTQRFIEAAVRQTAISEEDATALATEMLIGIGKLLDQELYTLPSLQKRVCVPGGITGEGIRVLEEDVGHMFDRLFQKTHQKYYHEQEKISSQLTLKGMAGDPNSLEHHHHHH | not soluble |
| MKIGIVIPAHNEEQHLSACLQSIQQAIQHTGHEQVEILVVLDSCTDQSRSVVESHQVNWIECNFACVGKARDLGIRQLIDQGVIWVACTDADTIVDSDWILCQMLHQPTDAICGVVTLDDLSHLSVQQQQKYLAHYQDSMDHQHIHGANLSFSAEAYIQAGGFEPIPCHEDVSLIEKFIKQCCKVTRSNLEHHHHHH | not soluble |
| MKIKEVRITGFRSYKDNTNVSGFSPRSNVVVGRNGSGKSNFFHAIQFVLSDEYAHLKEEQRLGLLHESTGPKVAHARVEITFDNSEKRLMAFENSEVKIVRQVGKKKDQYYIDNKMVPRAEVVNLMESAGFSRSNPYYIVKQGKINELATSPDAYKLKLLREVAGTRVYDERKEESLKILKETKMKTEKIQGLLKYIDERLQTLENEKEDLKEYQKLDKTKRSVEYTMYDNTNKEAIKEKTKLDEQKVELNQKDNNVKSQLNDVIAEMAKLKTDKKKLESLGRGLREDKETLQAEETKMVEEKMTLKLEIDSLNEENTRERQGRQNAEHSLQGVGDEIFKNEEELDTIKPEYAKLLEEESRLKTDIRIDESRAKEILAKQGQRSQFSSVDDRDKFLRNEIRRISGLIADNKEREETIQKELADVEREDEKLNNEIQSISRTIDENRYEMDTFAAKSTSLKQEYDAAYVAQQTAAREEKAIRDKIGNTEQDISAANDQLRRIVARPVYNGITGVRKVIEEFKHDNRNGQHDDVINGYYGTVIELAEVPDMFRTAVEVIAQNRLFYHVVETDRIATKILRKFNEMQLPGEINFFPMNRVSAPRQRDLSNNSNARPMSDVIDYEVQYDKVFKSITANVIIVRTLDQAARDLRNEGFDVVSVDGDQMSKKGVMTGGFIDKKRSKLELHTQKDRFTKELAELQKSLAEAEKMVRERTQEAEKIRNRMQQHENQIGDFHRKHRELTEAKNAISQQFYMVTSTKEPKKDQLLGIKNHLRELLAQKENFEQEIGSNMSSQLTSDEEQTVKKLRKKVDEMTKQLATVSRRRMDLMHRKNAIENLLTKKLYKTKESLTAKNPKFFLQRVDDISDNERRHKLENANAQLTSLLTRMESTRKQLATAISELQDYETKEKALQINIDNVLEQQRDLEKQQADFQLQYDKITAKEDEVKQKREDSLKKLILSRYSIKTRKNQFSYEISDSEEVGAKREPIEHRKLKISTFCLEYRAKLEKVHSNMRLLGALPTDTFSKWQNVKPRELEKKLLECVNELKKYENVNKKALDQYMTASSQKEELTKRMAEQKKSEDSIEELLKVLENRKYEAIDLTFKQVKKNFEQVFKQLVPHGRGKMQMRAREQRDDEEGINSVELYEGISVLVSFVSDDGDSETREMTQLSGGQKSLVALAIIFSIQKCDPAPFYLFDEIDAALDAQHRKSVADMIQSLSDQAQFVTTTFRPELLATAEKFYGVRFRNKVSHIDSVTREQAYDFVEDDTTHG | not soluble |
| MKIKTILTPVTCALLISFSAHATNADNYKNVINRTGAPQYMKDYDYDDHQRFNPFFDLGAWHGHLLPDGPNTMGGFPGVALLTEEYINFMASNFDRLTVWQDGKKVNFTLEAYNIPGALVQKLTAKDVQVEMTLRFATPRTSLLETKIISNKPLDLVWDGELLEKLEAKEGKPLSDKTIAGEYPDYQRKISATRDGLKVTFGKVRATWDLLTSGESEYQVHKSLPVQTEINGNRFTSKAHINGSTTLYTTYSHLLTSQEVSKEQMQIRDILARPAFYLTASQQRWEEYLKKGLTNPDATPEQTRVAVKAIETLNGNWRSPGGAVKYNTVTPSVTGRWFSGNQTWPWDTWKQAFAMAHFNPDIAKENIRAVFSWQIQPGDSVRPQDVGFVPDLIAWNLSPERGGDGGNWNERNTKPSLAAWSVMEVYNVTQDKTWVAEMYPKLVAYHDWWLRNRDHNGNGVPEYGATRDKAHNTESGEMLFTVKKGNKEETQSGLNNYARVVEKGQYDSLEIPAQVAASWESGRDDAAVFGFIDKEQLDKYVASGGKRSDWTVKFAENRSQDGTLLGYSLLQESVDQASYMYSDNHYLAEMATILGKPEEAKRYRQLAQQLADYINTCMFDPATQYFYDVRIEDKPLANGCAGKPIVERGKGPEGWSPLFNGAATQANADAVVKVMLDPKEFNTFVPLGTAALTNPAFGADIYWRGRVWVDQFWFGLKGMERYGYRDDALKLADTFFRHAKGLTADGPIQENYNPLTGAQQGAPNFSWSAAHFYMLYNDFFRKQ | not soluble |
| MKINLEELKFGTELIKRGFAKMQKGGVIMDVTNAEQAAIAEEAGAVAVMALHKVPADIRAAGGVARMADPKKIQEIIDAVTIPVMAKCRIGHIAEARALEALGVDMIDESEVLTPADVFFHIDKRKFVVPFVCGARSLGEAVRRIWEGAAMIRTKGEAGTGNVVEAVKHMRLINRAIFELQKMNEERIYGVAEKYASRYAELASRVREEMGLESVSRNDVVFEEYTLGEIIDGIYEILLEIRELGRLPVVNFAAGGVATPADAALMMQLGADGVFVGSGIFKSSNPPEYAKAIVEAVQHYDEPEVVAEVSKGLGEAMKGLDVFKLSEDERLQTRGL | not soluble |
| MKIQDYTKQMVDEKSFIDMAYTLLNDKGETMNLYDIIDEFRALGDYEYEEIENRVVQFYTDLNTDGRFLNVGENLWGLRDWYSVDDIEEKIAPTIQKFDILDADDEEDQNLKLLGEDEMDDDDDIPAQTDDQEELNDPEDEQVEEEINHSDIVIEEDEDELDEDEEVFEDEEDFND | not soluble |
| MKIQMKTPLVELDGDEMTRVLWPLIKDKLLLPFIDLQTEYYDLGIEERDRTNDQITIDAAEAIKKYGVGVKNATITPNQDRVEEYGLKEQWKSPNATVRAMLDGTVFRKPIMVKNIKPSVRSWQKPIVVGRHAYGDFYKNAEIFAEAGGKLEIVVTDKNGKETRQTIMEVDEPAIVQGIHNTVASIGHFARACFEYSLDQKIDCWFATKDTISKQYDQRFKIIFEEIFAQEYKEKFAAAGIEYFYTLIDDVVARMMKTEGGMLWACKNYDGDVMSDMVASAFGSLAMMSSVLVSPYGYFEYEAAHGTVQRHYYQHLKGERTSTNPVALIYAWTGALRKRGELDGTPDLCAFCDSLEAITIECIESGYMTGDLARICEPAAIKVLDSIEFIDELGKRLQQLNK | soluble |
